Legend:
Experiment in all cases: ELISA, growth factor coated at 10 μg/ml, antibody at 10 μg/ml, mean of duplicates
[1] = target: BMP-2 (R&D Systems 355-BEC/CF) (UniProt P12643)
[2] = target: BMP-5 (R&D Systems 615-BM) (UniProt P22003)
[3] = target: BMP-6 (R&D Systems 507-BP) (UniProt P22004)
[4] = target: BMP-7 (R&D Systems 354-BP) (UniProt P18075)
[5] = target: IGF-1 (R&D Systems 291-G1) (UniProt P05019)
[6] = target: TGF-a (R&D Systems 239-A) (UniProt P01135)
[7] = target: TGF-b1 (Peprotech 100-21R) (UniProt P01137)
UniProt P01137, sequence (P01137 279-390 limits assumed): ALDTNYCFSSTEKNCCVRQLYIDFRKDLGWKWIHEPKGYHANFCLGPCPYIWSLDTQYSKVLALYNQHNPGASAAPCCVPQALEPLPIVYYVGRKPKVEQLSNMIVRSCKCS

[8] = target: TGF-b2 (Peprotech 100-35) (UniProt P61812)
UniProt P61812, sequence (P61812 303-414 limits assumed): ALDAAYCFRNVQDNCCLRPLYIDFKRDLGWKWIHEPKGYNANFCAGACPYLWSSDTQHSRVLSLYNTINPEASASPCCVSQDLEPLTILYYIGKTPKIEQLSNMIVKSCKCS

[9] = target: 激活蛋白A (R&D Systems 338-AC) (UniProt P08476)
UniProt P08476, sequence (P08476 311-426 limits assumed): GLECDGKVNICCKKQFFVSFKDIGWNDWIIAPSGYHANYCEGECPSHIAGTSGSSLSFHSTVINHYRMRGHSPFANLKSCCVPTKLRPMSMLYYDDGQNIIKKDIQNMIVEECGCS

[10] = target: 激活蛋白B (R&D Systems 659-AB) (UniProt P09529)
UniProt P09529, sequence (P09529 293-407 limits assumed): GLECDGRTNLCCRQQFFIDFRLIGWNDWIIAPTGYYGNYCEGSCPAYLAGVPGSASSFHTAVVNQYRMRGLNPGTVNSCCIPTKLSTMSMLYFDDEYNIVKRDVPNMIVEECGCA

[11] = target: 重组人GDF-11(Peprotech公司，目录号120-11) (human) (UniProt O95390)
UniProt O95390, sequence (O95390 299-407 limits assumed): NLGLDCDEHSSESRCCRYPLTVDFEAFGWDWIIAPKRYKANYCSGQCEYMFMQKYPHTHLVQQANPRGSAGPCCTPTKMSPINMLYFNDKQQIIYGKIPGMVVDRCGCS

[12] = target: 重组小鼠肌肉生长抑素(R&D systems，目录号788-G8/CF) (mouse) (UniProt O08689)
UniProt O08689, sequence (O08689 268-376): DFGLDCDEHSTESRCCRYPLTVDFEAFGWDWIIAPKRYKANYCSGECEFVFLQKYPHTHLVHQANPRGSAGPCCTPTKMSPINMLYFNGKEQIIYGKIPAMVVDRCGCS

UniProt P18075, sequence (P18075 293-431 limits assumed): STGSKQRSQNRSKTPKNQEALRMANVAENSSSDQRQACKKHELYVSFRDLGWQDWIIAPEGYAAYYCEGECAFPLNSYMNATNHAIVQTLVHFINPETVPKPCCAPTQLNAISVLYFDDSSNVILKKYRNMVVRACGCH
UniProt P22003, sequence (P22003 317-454 limits assumed): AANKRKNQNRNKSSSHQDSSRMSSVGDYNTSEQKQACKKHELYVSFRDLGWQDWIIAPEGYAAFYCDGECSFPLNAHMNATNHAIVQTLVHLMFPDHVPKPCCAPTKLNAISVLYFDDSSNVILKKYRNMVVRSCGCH
UniProt P12643, sequence (P12643 283-396 limits assumed): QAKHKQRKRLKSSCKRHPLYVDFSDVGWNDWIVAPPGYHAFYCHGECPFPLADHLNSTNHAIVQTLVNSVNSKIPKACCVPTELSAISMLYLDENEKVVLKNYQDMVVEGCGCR
UniProt P05019, sequence (P05019 49-118 limits assumed): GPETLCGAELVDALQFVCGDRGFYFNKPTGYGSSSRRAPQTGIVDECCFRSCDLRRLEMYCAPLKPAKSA
UniProt P22004, sequence (P22004 382-513 limits assumed): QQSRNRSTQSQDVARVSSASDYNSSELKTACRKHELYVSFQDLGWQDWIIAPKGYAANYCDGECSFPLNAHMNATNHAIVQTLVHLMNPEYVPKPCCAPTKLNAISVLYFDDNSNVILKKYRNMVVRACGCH
UniProt P01135, sequence (P01135 40-89 limits assumed): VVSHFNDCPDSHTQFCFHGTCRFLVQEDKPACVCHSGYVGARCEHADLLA

多克隆抗肌肉生长抑素抗体(R&D Systems，目录号AF788) (antibody)
平均吸光度 (OD 490 nm) [1]: 0.0525 OD 490 nm | 平均吸光度 (OD 490 nm) [2]: 0.038 OD 490 nm | 平均吸光度 (OD 490 nm) [3]: 0.0745 OD 490 nm | 平均吸光度 (OD 490 nm) [4]: 0.042 OD 490 nm | 平均吸光度 (OD 490 nm) [5]: 0.045 OD 490 nm | 平均吸光度 (OD 490 nm) [6]: 0.0445 OD 490 nm | 平均吸光度 (OD 490 nm) [7]: 0.0425 OD 490 nm | 平均吸光度 (OD 490 nm) [8]: 0.0525 OD 490 nm | 平均吸光度 (OD 490 nm) [9]: 0.049 OD 490 nm | 平均吸光度 (OD 490 nm) [10]: 0.0485 OD 490 nm | 平均吸光度 (OD 490 nm) [11]: 2.62 OD 490 nm | 平均吸光度 (OD 490 nm) [12]: 2.94 OD 490 nm

Reference: patent publication CN1934266A
